Test results as given in the nanobody polyreactivity screen of Harvey et al. (2022).

Experiment: yeast display, Sf9 membrane polyspecificity reagent, FACS + sequencing; frameworks hold sequencing errors
Outline: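 Sorting gates, low and high (top ~1%), were placed on anti-HA fluorescence to track expression and on streptavidin fluorescence to track reagent binding. A clone's polyreactivity label is taken from the gate it came out of. The reagent was 10% biotinylated, detergent-solubilized Sf9 membrane, applied for 1 hour at 4 °C to galactose-induced yeast display cells.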

Row | Sequence | polyreactivity (PSR sort gate)
1 | QVQRVESGGGVVQAGGSLRLSCAASGSTFQLYAMGWYRQAPGKERELVAGISRDGSTYYADSVKGRFTISRDNAKNTVYLQMNSLKPEDTAVYYCAAKYYGNKRDLYYWGQGTQVTVSS | low polyreactivity
2 | QVQRVESWGGLVQAGGSLRLSCAASGSTFEYNAMGWNRQAPGKEREFVAAISRTGSRTYYADSVKGRFTISRDNAKNTVYLQMNSLKPEDTAVYYCARVKSRLQVGYYYWGQGTQVTVSS | high polyreactivity
3 | QVQVLESGGGLVQAGGSLRLSCAASGSIFDFYAMGWYRQAPGKDRELVAAISYRGGSTYADSVKGRFTISRDNAKNTVYLQMNSLKPEDTAVYYCAKVPDYRFEYWGQGTQVTVSS | high polyreactivity
4 | QVQVVESGGGLDQAGGSLRLSCAASGSIFQVYSMGWYRQAPGQERALVAAITWAAGSTYADSVKGRFTISRDNAKNTVYLQLKSLKPDDTAVYYCAAYPYVGYVTSSAYDYWGQGTQVTVSS | low polyreactivity
5 | QVQVVESGGGLFQAGGSLRLSCAASGYIFRFNAMGWSRQAPGKERELVAVITSGARTYYADSVKGRFTISRDNAKNTVYFQINSLKPEDTAFYYFNAGARRYLYDYWGQGTQVTVSS | low polyreactivity
6 | QVQVVESGGGLVQAGGSLRLSCAASGFIFNTHAMGWYRQAPGKERELVAAITWTGDSTYYADSVKGRFTISRDYAKNTVYLQMNSLKPEDTAVYYCNAATGDWETSIWTYPFWAEMYYWGQGTQVNVSS | low polyreactivity
7 | QVQVVESGGGLVQAGGSLRLSCAASGFIFRYYAMGWYRQAPGKEREFVAAISTSAGSTYYADSVKGRFTISRDNAKNTVYLQMNSLKPEDTAVSYCAAEYWRRASYNYWGQGTQVTVSS | high polyreactivity
8 | QVQVVESGGGLVQAGGSLRLSCAASGFTYGNNGMGWYRQAPGKERELVATISWSGGSTYADSVKGRFTISRDNAKNTVYLQMNSLKPEDTAVYYCAARYFVYYQEVDYWGQGTQVTVSS | low polyreactivity
9 | QVQVVESGGGLVQAGGSLRLSCAASGLTYSYYTMGWYRQAPGKERELVAAITSSSGRTYYADSVKGRITISRDNAKNTVYLQMNSLKPEDTAVYYCAARWSPYDYWGQGTQVTVSS | low polyreactivity
10 | QVQVVESGGGLVQAGGSLRLSCAASGRIFANNAMGWYRQAPGKERELVAAITASSGSTYYADSVKGRFTISRDNAKNTVYFQMNSLKPEDTAFYYCAATLRWGFRWYFGFDYWGQGTQVTVSS | high polyreactivity
11 | QVQVVESGGGLVQAGGSLRLSCAASGRIFPYYTMGWYRQAPGKERDLVAAISRRGSSTYYADSVKGRFTISRDNAKNTVYLQMNSLKPEDTAVYYCAADRGGYTRTGEYDYWGQCTQVTVSS | high polyreactivity
12 | QVQVVESGGGLVQAGGSLRLSCAASGSIFKFNAMGWYRQAPGKERELVAAISYSGGNTDYADSVKGRFTISRDNAKNTVYLQMNSLKPEDTAVYYCAATSYLVLTLEYDYWGQGTQVTVSS | low polyreactivity
13 | QVQVVESGGGLVQAGGSLRLSCAASGSIFSYNAMGWYRQAPGKERELVATITWSAGSTYYADSVKGRFTISRDNAKNPVYLQMNSLKPEDTAVYYCAKRARESSSVSRVNYWFDYWGQGTQVTVSS | low polyreactivity
14 | QVQVVESGGGLVQAGGSLRLSCAASGSIFTYYAMGWYRQAPGKERELVAAINWSGASTYYADSVKGRFTISRDNAKNTVYLQMNSLKPEDTAVYYCAGYGYWGQGTQVTVSS | high polyreactivity
15 | QVQVVESGGGLVQAGGSLRLSCAASGSSFGVNAMGRYTQAPGKERELVASITWSGDNTYYADSVKGRFTISRDNAKNTVYLQMNSLKPEDTAVYYCAATIWIAYRGWYSDYNYWGQGTQVTVSS | low polyreactivity
16 | QVQVVESGGGLVQAGGSLRLSCAASGSTCYFNAMGWYRQAPGTERELVAAIEWSGGSTYYADSVKGRFTISRDNAKNTVYLQMTSLKPEDTAVYYCNRRDVIFLTGPPQYIFPTYDYWGQGTQVTVSS | low polyreactivity

Row | Sequence | polyreactivity (PSR sort gate)
17 | QVQVVESGGGLVQAGGTLRLSCAASGFILPHYTMGWYRQAPAKERELVAAITSGVSTYYADSVKGRFTISRDNAKNTVYLQMNSLKTEDTAVYYCNALATYIGYKYDYWGQGTQVTVSS | low polyreactivity
18 | QVQVVESGGGLVQEGGSHRISCAASGRIFFTNAMGWSRQAPGKERELVAAINDVGSTYYADSVKGRFTISRDNAKNTVYLQLNSLKAEDTAVYYCAVQAYGRGRSLKMYYWRQGTQVTVSS | high polyreactivity
19 | QVQVVESVGGLVQAGGILRLSCAASGRTFRGNAMGWYRQAPGKERELVAAISSSGARTYYADSVKGRFTISRDNAKNTVYLQMNSLKPEDTAVYYCAAVYTDGALQGYDYWGQGTQVTVSS | low polyreactivity
20 | QVRLVESGGGLDQAGGSLRLSSAASGRIFNRNAMGWYRQAPGKARELVAAINRGGSTNYADSVKGRFTISRDNAKNTVYLQLNRLKPEDTAVYYCAAELLYATLWRRYSGYYYWGQGTQVTVSS | high polyreactivity
21 | QVRLVESGGGLGQAGGSLRLSCAASGPIFDTNAMGWYRQAPGKERELVAAISYIGGGTYYADSVKGRFTISRDNAKNTVYLQMNSLKPEDTAVYYCAAEQIYVFFGDWMEYWGQGTQVTVSS | low polyreactivity
22 | QVRLVESGGGLVQAGGSLRLSCAASGRIFQYYSMGWYRQAPGKERELVASITSGGGSTYYADSVKGRFTISRDNAKNTVYLQMNSLKPEDTAVYYCNARWYGLSTRYDYWGQGTQVTVSS | low polyreactivity
23 | QVRLVESGGGLVQAGGSLRLSCAASGSIFQYYVMGWYRQAPGKERELVAAISRNGGRTYYADSVKGRFTISRDNAKNTVYLQMNSLKPEDTAVYYCAADSIPHRDNYWGQGTQVTVSS | high polyreactivity
24 | QVRLVESGGGLVQAGGSLRLSCAASGSTFPYYDMGWYRQAPGKERELVAAITWSSGSTYYADSVKGRFTISRDNAKNTVYLQMNSLKPEDTAVYYCAAELYSYREDYGAHYAYEYWGQGTQVTVSS | low polyreactivity
25 | QVRLVESGGGLVQAGGSLRLSCAASGSTFVYYAMGRYRQAPGNERELVAAITSGDSTYYADSVKGRFTISRDNAKNTVYLQMNSLKPEDTAVYYCAKRISYLPVEMDYWGQGTQVSVSS | low polyreactivity
26 | QYQLVESGGGLVQAGGRLRLSCAASGSIFSNYAMGWYRQAPGKERQFVAAISGGGGSTYYADSVKGRFTISRDNANNTVYLQMNSLKPEDTAVYYCARVRYYGALKLYAYDHWGQGTQVTVSS | high polyreactivity
27 | RVQLPESGGGLVQAGGSLRLTCAASGTIFIRGDMGWYRQSPGKEREFVATIDTGSNTYYADSEKGRFTISRDNAKNAVYLQMNCLKPGDTAVYYCVVDYQLSGRLRYWGQGTQVTLSS | low polyreactivity
28 | RVQLQESGGGLVQAGGSLRLSCAASGTIFIRGDMGWYRQAPGKEREFVATIDTGSNTYNADSEKGRFTISRDNAKNAVYLQMNCLKPGDTAVYYCVVDYQLSGRLRYWGQGTQVTLSS | low polyreactivity
29 | RVQLVESAGGLLQAGGSLRLSCAASGRTFTLYAMGWDRQAPGKDRELVAAIRWSGSSTYYADSVKGRFTISRDYAKHTVYLQINSLKPEATAVYYCAARAGRYERYGYWGQGTQVTVSS | high polyreactivity
30 | RVQLVESGGGLVQAGGSLRLSCAASGLIFYYNAMVWYRQAPGKERELVAAISTGGSTNYADSVKGRFTISRYNAKNTVYLQMNSLKPEDTAVYYCAAGTRKPYGYKMYYWGQGTQVTVSS | high polyreactivity
31 | RVQLVESGGGLVQAGGSLRLSCAASGSISQGNAMGWYRQAPGKERELVADIRWTSGRTYYADSVKGRFTISRDNAKNTVYLQMNSLKPEDTAVYYCAAYYVYYTPTLIDRDYWGQGNQVTVSS | low polyreactivity
32 | VQLVESGGGLVQAGGSLRLSCAASGRIFSNNAMGWYRQAPGKEREFVAAITTSAGRTYYADSVKGRFTISRDNAKNTVYLQMNSLKPEDTAVYYCAAEPRQYWEYNYWGQGTQVTVSS | high polyreactivity
